Assay results reported in patent US20180086841A1 (Merck Sharp & Dohme, published 2018).

Assays:
Test in all cases: flow cytometry on CHO-K1 transfectants;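 also: Anti-hCD27 antibodies tested on transiently transfected CHO-K1 cells bearing hCD27 alanine mutants, 30 min at 4 °C primary incubation, FITC readout excluding debris, dead cells and doublets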
[1] = target: T1, G89A
T1 construct: also called hCD27 G89A
T1 receptor chain: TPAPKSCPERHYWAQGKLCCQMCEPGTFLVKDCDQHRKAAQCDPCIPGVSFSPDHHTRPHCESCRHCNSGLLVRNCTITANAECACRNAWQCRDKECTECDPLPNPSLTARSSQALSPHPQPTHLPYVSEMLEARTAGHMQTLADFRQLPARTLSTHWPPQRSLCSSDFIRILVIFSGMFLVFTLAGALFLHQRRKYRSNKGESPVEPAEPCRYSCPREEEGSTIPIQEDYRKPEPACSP

[2] = target: T2, Q15A
T2 construct: also called hCD27 Q15A
T2 receptor chain: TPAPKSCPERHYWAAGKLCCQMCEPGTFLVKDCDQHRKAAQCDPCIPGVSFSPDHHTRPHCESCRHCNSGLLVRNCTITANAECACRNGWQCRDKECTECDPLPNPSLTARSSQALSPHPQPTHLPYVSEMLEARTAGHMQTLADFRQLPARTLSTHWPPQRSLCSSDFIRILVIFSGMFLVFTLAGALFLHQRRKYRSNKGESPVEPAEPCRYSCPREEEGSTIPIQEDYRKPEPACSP

[3] = target: T3, W90A
T3 construct: also called hCD27 W90A
T3 receptor chain: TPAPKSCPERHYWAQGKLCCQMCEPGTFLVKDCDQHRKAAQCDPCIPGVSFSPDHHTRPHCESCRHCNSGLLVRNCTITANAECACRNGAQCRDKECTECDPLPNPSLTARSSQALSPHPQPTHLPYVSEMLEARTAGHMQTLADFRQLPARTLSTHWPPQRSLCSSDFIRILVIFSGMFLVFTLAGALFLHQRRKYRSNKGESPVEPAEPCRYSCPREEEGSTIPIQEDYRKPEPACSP

[4] = target: T4, E9A
T4 construct: also called hCD27 E9A
T4 receptor chain: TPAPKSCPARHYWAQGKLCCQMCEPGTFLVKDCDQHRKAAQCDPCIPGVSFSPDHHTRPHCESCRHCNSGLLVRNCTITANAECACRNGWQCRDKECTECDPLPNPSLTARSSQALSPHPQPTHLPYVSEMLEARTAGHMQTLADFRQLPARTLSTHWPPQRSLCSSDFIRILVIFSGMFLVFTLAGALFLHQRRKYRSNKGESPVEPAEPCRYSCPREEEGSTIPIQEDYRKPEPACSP

[5] = target: T5, K38A
T5 construct: also called hCD27 K38A
T5 receptor chain: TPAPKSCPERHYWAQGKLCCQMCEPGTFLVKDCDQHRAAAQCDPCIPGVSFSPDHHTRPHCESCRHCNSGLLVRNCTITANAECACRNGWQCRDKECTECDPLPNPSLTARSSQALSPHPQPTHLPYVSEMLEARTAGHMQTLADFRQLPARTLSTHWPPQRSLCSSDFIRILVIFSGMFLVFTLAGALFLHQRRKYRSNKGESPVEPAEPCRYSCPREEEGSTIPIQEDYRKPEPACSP

[6] = target: T6, K17A
T6 construct: also called hCD27 K17A
T6 receptor chain: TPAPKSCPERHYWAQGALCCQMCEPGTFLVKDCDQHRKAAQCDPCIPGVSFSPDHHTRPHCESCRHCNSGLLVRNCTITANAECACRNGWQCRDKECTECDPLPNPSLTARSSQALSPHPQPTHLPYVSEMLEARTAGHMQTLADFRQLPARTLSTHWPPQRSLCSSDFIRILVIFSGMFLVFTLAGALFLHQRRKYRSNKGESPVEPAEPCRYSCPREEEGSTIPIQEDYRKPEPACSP

[7] = target: T7, R10A
T7 construct: also called hCD27 R10A
T7 receptor chain: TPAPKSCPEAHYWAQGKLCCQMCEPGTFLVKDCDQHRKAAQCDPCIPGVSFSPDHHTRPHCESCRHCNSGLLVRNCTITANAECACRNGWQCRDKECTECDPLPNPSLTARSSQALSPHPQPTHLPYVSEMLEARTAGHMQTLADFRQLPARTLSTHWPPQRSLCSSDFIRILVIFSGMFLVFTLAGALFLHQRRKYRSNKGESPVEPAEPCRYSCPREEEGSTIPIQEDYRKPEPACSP

[8] = target: T8, R37A
T8 construct: also called hCD27 R37A
T8 receptor chain: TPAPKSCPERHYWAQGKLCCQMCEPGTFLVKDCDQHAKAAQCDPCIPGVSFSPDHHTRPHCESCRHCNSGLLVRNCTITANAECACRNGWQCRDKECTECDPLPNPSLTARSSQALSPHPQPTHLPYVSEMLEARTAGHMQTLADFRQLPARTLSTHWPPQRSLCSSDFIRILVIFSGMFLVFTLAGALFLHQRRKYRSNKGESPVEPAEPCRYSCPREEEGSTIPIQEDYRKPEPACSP

[9] = target: T9, P8A
T9 construct: also called hCD27 P8A
T9 receptor chain: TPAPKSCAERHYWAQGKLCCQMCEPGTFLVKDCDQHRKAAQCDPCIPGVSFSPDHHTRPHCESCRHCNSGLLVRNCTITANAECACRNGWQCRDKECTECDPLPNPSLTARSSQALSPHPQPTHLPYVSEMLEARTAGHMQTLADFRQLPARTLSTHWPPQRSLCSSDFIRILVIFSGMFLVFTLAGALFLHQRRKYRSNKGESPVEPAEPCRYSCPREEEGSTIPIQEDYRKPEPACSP

[10] = target: T10, V49A
T10 construct: also called hCD27 V49A
T10 receptor chain: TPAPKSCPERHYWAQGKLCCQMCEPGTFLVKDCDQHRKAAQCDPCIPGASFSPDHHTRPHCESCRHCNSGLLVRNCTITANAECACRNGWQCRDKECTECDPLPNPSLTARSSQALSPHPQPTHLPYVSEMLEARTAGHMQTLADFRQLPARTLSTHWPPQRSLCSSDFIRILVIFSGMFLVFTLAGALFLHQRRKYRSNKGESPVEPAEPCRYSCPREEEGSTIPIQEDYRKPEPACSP

binding, WT hCD27 = 100 (GM FITC) [1]: 97.4%
binding, WT hCD27 = 100 (GM FITC) [2]: 98.6%
binding, WT hCD27 = 100 (GM FITC) [3]: 93.8%
binding, WT hCD27 = 100 (GM FITC) [4]: 58.5%
binding, WT hCD27 = 100 (GM FITC) [5]: 97.6%
binding, WT hCD27 = 100 (GM FITC) [6]: 120%
binding, WT hCD27 = 100 (GM FITC) [7]: 58.9%
binding, WT hCD27 = 100 (GM FITC) [8]: 106%
binding, WT hCD27 = 100 (GM FITC) [9]: 63%
binding, WT hCD27 = 100 (GM FITC) [10]: 69%
B1: hCD27.15-6B (antibody, human IgG4 S228P, kappa, V domains shown)
VH: QVQLVQSGAEVKKPGASVKVSCKASGFIIKATYMHWVRQAPGQRLEWMGRIDPANGETKYDPKFQVRVTITADTSASTAYMELSSLRSEDTAVYYCARYAWYFDVWGQGTLVTVSS
VL: DIQMTQSPSSLSASVGDRVTITCRASENIYSFLAWYQQKPGKAPKLLIYHAKTLAEGVTSRFSGSGSGTDFTLTISSLQPEDSATYYCQHYYGSPLTFGQGTRLEIKR
notes: also called hCD27.15 (humanized 6B); humanized hCD27.15 (human IgG4, Clone 6B)
